# From patent publication US20220064648, “NOVEL X-[…] FOR THE USE IN DETECTION OF SNAP25” (Galderma Holding S.A., published 2022)
# T1: SNAP25 Peptide 3 (PEP3; only a fragment of it is a SNAP25 subsequence) (Homo sapiens, UniProt P60880 SEQ:1-33)
# T1 chain: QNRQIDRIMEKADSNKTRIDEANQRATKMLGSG
# Biological target: T1, SNAP25 Peptide 3 (PEP3; only a fragment …)
# Assay: ELONA
# From the text: The data in Table 2 was collected by running direct ELISA assays on the 96 X-aptamers, elucidating their ability to bind SNAP25, SNAP25 fragments (PEP1, PEP2, PEP3, and PEP4), and a negative control. The X-aptamers were biotinylated and immobilized onto streptavidin-coated plates and were utilized as detection molecules. Higher numbers represent strong binding. The negative control peptide is a random peptide to measure the amount of binding that occurs to a random amino acid sequence.
row,Binder,binding signal [ELISA signal]
1,"PEP 3.07 (ssDNA, W indole, X amine, Y phenol modified dU [19Y]) DNA: TTTTTAAGCCCACGACACTGTGGCCAACACAGTACATGCATGTGGGCCCATG",219
2,"PEP 3.06 (ssDNA, W indole, X amine, Y phenol modified dU [19Y,24W,35Y,43X,46Y]) DNA: TTTTTAACACGACCGCACTGTGATAGGCGAACGGTGTGGAGGTCGTGCCATG",230
3,"PEP 3.20 (ssDNA, W indole, X amine, Y phenol modified dU [16, 17, 23, 24 (indole dU), 19 (phenol dU), 27 (amine dU)]) DNA: TTTTTAAGCCCACAGTTCTGTGTTCATCACAGAGCAACACTGTGGGCCCATG",97
4,"PEP 3.14 (ssDNA, W indole, X amine, Y phenol modified dU [19, 34 (phenol dU), 38 (indole dU)]) DNA: TTTTTAACACGACACCACTGTGCCCACCACAGTTCACTGAAGTGGGCCCATG",114
5,"PEP 3.05 (ssDNA, W indole, X amine, Y phenol modified dU [19Y,23W,24W,38W]) DNA: TTTTTAACACGACGACACTGTGTTGGGCGAACTCCGCTGGGGTGGGCCCATG",272
6,"PEP 3.16 (ssDNA, W indole, X amine, Y phenol modified dU [15, 19, 34 (phenol dU)]) DNA: TTTTTAAGCCCACATCACTGTGCGAGCCACAGATCAGGCAGGTGGGCCCATG",111
7,"PEP 3.02 (ssDNA, W indole, X amine, Y phenol modified dU [19Y,24W,25X,34Y,40W,43X,46Y]) DNA: TTTTTAACACGACAGCACTGTGGTTCGCGAACCTCAAGCTCGTCGTGCCATG",406
8,"PEP 3.15 (ssDNA, W indole, X amine, Y phenol modified dU [14, 25, 27, 43 (amine dU), 19, 46 (phenol dU), 36 (indole dU)]) DNA: TTTTTAACACGACTGCACTGTGAATCTCGAACGCATCGGGAGTCGTGCCATG",114
9,"PEP 3.08 (ssDNA, W indole, X amine, Y phenol modified dU [15Y,19Y,24W,25X,27X,40W,43X,46Y]) DNA: TTTTTAACACGACGTCACTGTGGTTCTCGAACGCCGCGCTTGTCGTGCCATG",207
10,"PEP 3.01 (ssDNA, W indole, X amine, Y phenol modified dU [19Y,24W,25X,27X,34Y,36W,38W,40W]) DNA: TTTTTAACACGACACCACTGTGGTTCTCACAGCTATGTGTTGTGGGCCCATG",503
11,"PEP 3.13 (ssDNA, W indole, X amine, Y phenol modified dU [15, 19, 46 (phenol dU), 38 (indole dU), 43 (amine dU)]) DNA: TTTTTAACACGACATCACTGTGCACAGCGAACTGCGTTGGCGTCGTGCCATG",115
12,"PEP 3.18 (ssDNA, W indole, X amine, Y phenol modified dU [19, 36 (indole dU), 20, 46 (phenol dU), 27, 43 (amine dU)]) DNA: TTTTTAACACGACACGGGTTCGCACATCACAGAGATACACTGTCGTGCCATG",105
13,"PEP 3.11 (ssDNA, W indole, X amine, Y phenol modified dU [14X,16W,19W,20Y,40W,43X,46Y]) DNA: TTTTTAAGCCCACTGTCGTTCGGCGGGCGAACGACAGCATGGTCGTGCCATG",137
14,"PEP 3.17 (ssDNA, W indole, X amine, Y phenol modified dU [14, 27 (amine dU), 19 (indole dU), 20 (phenol dU)]) DNA: TTTTTAAGCCCACTAGAGTTCGGCCATCACAGTCCAACACTGTGGGCCCATG",110
15,"PEP 3.03 (ssDNA, W indole, X amine, Y phenol modified dU [16W,19W,20Y,34Y,38W,40W,43X,46Y]) DNA: TTTTTAACACGACAATGGTTCGGGGGGCGAACGTCACTGTGGTCGTGCCATG",338
16,"PEP 3.12 (ssDNA, W indole, X amine, Y phenol modified dU [14 (amine dU), 16 (indole dU), 19 (phenol dU)]) DNA: TTTTTAACACGACTATCCTGTGAGCAACACAGGGCGGCACTGTGGGCCCATG",118
17,"PEP 3.21 (ssDNA, W indole, X amine, Y phenol modified dU [14, 27, 43 (amine dU), 19, 23, 38, 40 (indole dU), 20, 46 (phenol dU)]) DNA: TTTTTAAGCCCACTCCGGTTCGTCCATCACAGCCCACTGTGGTCGTGCCATG",96
18,"PEP 3.19 (ssDNA, W indole, X amine, Y phenol modified dU [19, 46 (phenol dU), 27, 43 (amine dU)]) DNA: TTTTTAAGCCCACGCCACTGTGACCATCGAACCACACGGCCGTCGTGCCATG",102
19,"PEP 3.04 (ssDNA, W indole, X amine, Y phenol modified dU [19Y,24W,34Y,40W]) DNA: TTTTTAAGCCCACGGCACTGTGCTCAGCACAGCTCGGGGTGGTGGGCCCATG",276
20,"PEP 3.10 (ssDNA, W indole, X amine, Y phenol modified dU [19Y,34Y]) DNA: TTTTTAACACGACAGCACTGTGCACAGCACAGCTCAAGGGTGTGGGCCCATG",139
